Laboratory results taken from publication PMC5003356.

Key:
P54nrb-HIS = molecular target: T1, P54nrb-HIS (UniProt Q15233); assay: competition FP; details: 3-10-3 cEt gap-mer; BRET: 1X binding buffer (0.1 M potassium acetate, 20 mM Tris pH 7.5, 1 mM EDTA, 0.01% NP-40), room temperature, 15 min; FP in the same buffer; c-Jun in OptiMEM …
T1 sequence: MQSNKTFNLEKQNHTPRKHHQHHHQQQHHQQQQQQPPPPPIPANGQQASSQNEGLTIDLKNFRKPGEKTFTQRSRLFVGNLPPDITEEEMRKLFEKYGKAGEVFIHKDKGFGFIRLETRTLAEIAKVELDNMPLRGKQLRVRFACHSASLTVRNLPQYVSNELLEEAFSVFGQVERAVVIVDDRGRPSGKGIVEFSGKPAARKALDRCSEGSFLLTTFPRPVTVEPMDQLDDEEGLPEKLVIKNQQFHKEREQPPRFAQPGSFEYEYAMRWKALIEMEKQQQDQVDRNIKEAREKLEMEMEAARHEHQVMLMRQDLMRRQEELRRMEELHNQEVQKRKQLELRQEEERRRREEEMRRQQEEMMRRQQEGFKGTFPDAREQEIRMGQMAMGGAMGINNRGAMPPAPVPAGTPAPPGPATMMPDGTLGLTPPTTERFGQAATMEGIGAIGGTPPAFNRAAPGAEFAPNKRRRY

[1] = molecular target: T2, NLuc-La dR1/R2 internal_change (UniProt P05455); assay: BRET; details: PS; 5-10-5 (S)-cEt gap-mer; BRET: 1X binding buffer (0.1 M potassium acetate, 20 mM Tris pH 7.5, 1 mM EDTA, 0.01% NP-40), room temperature, 15 min; FP in the same buffer; c-Jun in OptiMEM …
T2 sequence: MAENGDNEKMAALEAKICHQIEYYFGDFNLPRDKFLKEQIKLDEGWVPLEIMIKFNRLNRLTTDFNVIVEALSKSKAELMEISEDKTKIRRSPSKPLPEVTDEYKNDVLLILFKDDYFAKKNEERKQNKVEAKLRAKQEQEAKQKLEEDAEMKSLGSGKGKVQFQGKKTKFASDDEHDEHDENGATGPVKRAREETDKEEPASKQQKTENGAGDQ

With AACATGTCTGCCAGGG [660956] the Kd (P54nrb-HIS) was 33 nM.

ACCCTGCCACGATGTA [660992] showed a Kd (P54nrb-HIS) of 95.1 nM.

CCACTGCGCAGGCCAG [660935] showed a Kd (P54nrb-HIS) of 337 nM.

CCAGCGGGTGGACTGT [660923] was tested, and the Kd (P54nrb-HIS) was 38.3 nM.

For CCCTCCCTCCCGCTAG [661121], the Kd (P54nrb-HIS) was 19.5 nM.

“CTGCTAGCCTCTGGATTTGA [766636 cEt gap-mer]” was tested, and the binding signal (fold lower affinity than full length) [1] was 50.

With CTGGGAACTGGTCACC [660899] the Kd (P54nrb-HIS) was 119 nM.

CTTCTAGCCACTGGCT [661010] showed a Kd (P54nrb-HIS) of 326 nM.

Work on GGGAGGAGGACAGCTC [660908] yielded a Kd (P54nrb-HIS) of 4.6 nM.

For GTTAAGAAGGCTGTCC [661073], the Kd (P54nrb-HIS) was 260 nM.

TCAGTCATGGTATAAA [661115] showed a Kd (P54nrb-HIS) of 86.9 nM.

Work on TCCACAGAGCGGACTG [660965] yielded a Kd (P54nrb-HIS) of 310 nM.

Sequence TGAGAAGATCTCCCGG [661103] has a Kd (P54nrb-HIS) of 33.6 nM.
